B1: H1.37_L1 (antibody, human IgG1, kappa, V domains shown)
VH: EVQLVESGGGLVQPGGSLRLSCAASGFTFSSFGMHWVRQAPGKGLEWVSYIASGSSIIYYADSVKGRFTISRDNAKNSLYLQMNSLRAEDTAVYYCARGGRLVWSPDYWGQGTLVTVSS
VL: DIVMTQSPDSLAVSLGERATINCKSSQSLLNSGNQKNYLTWYQQKPGQPPKLLIYWASTRESGVPDRFTGSGSGTDFTLTISSLQAEDVAVYYCQNDYSYPFTFGSGTKLEIKR
notes: also called VH-S54A; Kabat 52A; copies: 2 + 2
B2: H1.40_L1 (antibody, human IgG1, kappa, V domains shown)
VH: B1 VH with A52V
VL: B1 VL
notes: also called VH-S54V; Kabat 52V; copies: 2 + 2
B3: H1.54_L1 (antibody, human IgG1, kappa, V domains shown)
VH: B1 VH with A52S, G54A
VL: B1 VL
notes: also called VH-G56A; Kabat 53A; copies: 2 + 2
B4: H1.59_L1 (antibody, human IgG1, kappa, V domains shown)
VH: B1 VH with A52S, G54K
VL: B1 VL
notes: also called VH-G56K; Kabat 53; copies: 2 + 2
B5: H1.44_L1 (antibody, human IgG1, kappa, V domains shown)
VH: B1 VH with A52E
VL: B1 VL
notes: also called VH-S54E; Kabat 52E
B6: H1.69_L1 (antibody, human IgG1, kappa, V domains shown)
VH: B1 VH with A52S, S55Y
VL: B1 VL
notes: also called VH-S59Y; Kabat 54; copies: 2 + 2
B7: H1.56_L1 (antibody, human IgG1, kappa, V domains shown)
VH: B1 VH with A52S, G54T
VL: B1 VL
notes: also called VH-G56T; Kabat 53T; copies: 2 + 2
B8: H1.38_L1 (antibody, human IgG1, kappa, V domains shown)
VH: B1 VH with A52Q
VL: B1 VL
notes: also called VH-S54Q; Kabat 52Q; copies: 2 + 2
B9: H1.52_L1 (antibody, human IgG1, kappa, V domains shown)
VH: B1 VH with A52S, S53Y
VL: B1 VL
notes: also called VH-S55Y; Kabat 52aY
B10: H1.48_L1 (antibody, human IgG1, kappa, V domains shown)
VH: B1 VH with A52S, S53G
VL: B1 VL
notes: also called VH-S55G; Kabat 52aG
B11: H1.60_L1 (antibody, human IgG1, kappa, V domains shown)
VH: B1 VH with A52S, G54L
VL: B1 VL
notes: also called VH-G56L; Kabat 53; copies: 2 + 2
B12: H1.53_L1 (antibody, human IgG1, kappa, V domains shown)
VH: B1 VH with A52S, S53E
VL: B1 VL
notes: also called VH-S55E; Kabat 52aE
B13: H1.62_L1 (antibody, human IgG1, kappa, V domains shown)
VH: B1 VH with A52S, S55T
VL: B1 VL
notes: also called VH-S59T; Kabat 54; copies: 2 + 2
B14: H1.68_L1 (antibody, human IgG1, kappa, V domains shown)
VH: B1 VH with A52S, S55K
VL: B1 VL
notes: also called VH-S59K; Kabat 54; copies: 2 + 2
B15: H1.45_L1 (antibody, human IgG1, kappa, V domains shown)
VH: B1 VH with A52S, S53T
VL: B1 VL
notes: also called VH-S55T; Kabat 52aT
B16: H1.61_L1 (antibody, human IgG1, kappa, V domains shown)
VH: B1 VH with A52S, G54Y
VL: B1 VL
notes: also called VH-G56Y; Kabat 53; copies: 2 + 2
B17: H1.64_L1 (antibody, human IgG1, kappa, V domains shown)
VH: B1 VH with A52S, S55Q
VL: B1 VL
notes: also called VH-S59Q; Kabat 54; copies: 2 + 2
B18: H1.41_L1 (antibody, human IgG1, kappa, V domains shown)
VH: B1 VH with A52H
VL: B1 VL
notes: also called VH-S54H; Kabat 52H; copies: 2 + 2
B19: H1.65_L1 (antibody, human IgG1, kappa, V domains shown)
VH: B1 VH with A52S, S55G
VL: B1 VL
notes: also called VH-S59G; Kabat 54; copies: 2 + 2
B20: H1.46_L1 (antibody, human IgG1, kappa, V domains shown)
VH: B1 VH with A52S, S53A
VL: B1 VL
notes: also called VH-S55A; Kabat 52aA
B21: H1.70_L1 (antibody, human IgG1, kappa, V domains shown)
VH: B1 VH with A52S, S55E
VL: B1 VL
notes: also called VH-S59E; Kabat 54; copies: 2 + 2
B22: H1.47_L1 (antibody, human IgG1, kappa, V domains shown)
VH: B1 VH with A52S, S53Q
VL: B1 VL
notes: also called VH-S55Q; Kabat 52aQ
B23: H1.55_L1 (antibody, human IgG1, kappa, V domains shown)
VH: B1 VH with A52S, G54S
VL: B1 VL
notes: also called VH-G56S; Kabat 53S; copies: 2 + 2
B24: H1.63_L1 (antibody, human IgG1, kappa, V domains shown)
VH: B1 VH with A52S, S55A
VL: B1 VL
notes: also called VH-S59A; Kabat 54; copies: 2 + 2
B25: H1.49_L1 (antibody, human IgG1, kappa, V domains shown)
VH: B1 VH with A52S, S53V
VL: B1 VL
notes: also called VH-S55V; Kabat 52aV; copies: 2 + 2
B26: H1.66_L1 (antibody, human IgG1, kappa, V domains shown)
VH: B1 VH with A52S, S55V
VL: B1 VL
notes: also called VH-S59V; Kabat 54; copies: 2 + 2
B27: H1.42_L1 (antibody, human IgG1, kappa, V domains shown)
VH: B1 VH with A52K
VL: B1 VL
notes: also called VH-S54K; Kabat 52K
B28: H1.51_L1 (antibody, human IgG1, kappa, V domains shown)
VH: B1 VH with A52S, S53K
VL: B1 VL
notes: also called VH-S55K; Kabat 52aK
B29: H1.50_L1 (antibody, human IgG1, kappa, V domains shown)
VH: B1 VH with A52S, S53H
VL: B1 VL
notes: also called VH-S55H; Kabat 52aH; copies: 2 + 2
B30: H1.43_L1 (antibody, human IgG1, kappa, V domains shown)
VH: B1 VH with A52Y
VL: B1 VL
notes: also called VH-S54Y; Kabat 52Y
B31: H1.58_L1 (antibody, human IgG1, kappa, V domains shown)
VH: B1 VH with A52S, G54H
VL: B1 VL
notes: also called VH-G56H; Kabat 53; copies: 2 + 2
B32: H1.57_L1 (antibody, human IgG1, kappa, V domains shown)
VH: B1 VH with A52S, G54Q
VL: B1 VL
notes: also called VH-G56Q; Kabat 53Q; copies: 2 + 2
B33: H1.39_L1 (antibody, human IgG1, kappa, V domains shown)
VH: B1 VH with A52G
VL: B1 VL
notes: also called VH-S54G; Kabat 52G; copies: 2 + 2
B34: H1.67_L1 (antibody, human IgG1, kappa, V domains shown)
VH: B1 VH with A52S, S55H
VL: B1 VL
notes: also called VH-S59H; Kabat 54; copies: 2 + 2

Residue numbers refer to the chain shown, from its start. Numbers in names are those of the source.

T1 sequence (Q15116 25-167 limits assumed): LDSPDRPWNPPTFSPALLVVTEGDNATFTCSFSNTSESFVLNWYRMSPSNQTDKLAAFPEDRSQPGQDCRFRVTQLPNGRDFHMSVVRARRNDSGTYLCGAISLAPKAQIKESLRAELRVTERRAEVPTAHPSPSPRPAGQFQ

The assay addresses T1, human PD-1-His (human, UniProt Q15116 25-167, limits assumed).
T1 construct: Antigen of the Octet assays; not shown: His tag
As to the kind of experiment: Octet. Background: Biolayer interferometry detects binding as a change in optical thickness at a sensor tip.
For orientation: Kd means the constant that tells how readily two partners part at equilibrium. For orientation: koff means a measure of how fast the partners let go of each other. The low end stands for slow dissociation, the high end for fast dissociation. The term kon denotes the second-order rate constant of association. A higher kon goes with faster complex formation. In turn, B1 yielded a Kd of 56 nM, a dissociation rate constant (koff) of 0.00763 s⁻¹ and an association rate constant (kon) of 136000 M⁻¹ s⁻¹.
The corresponding values for B2 are 231 nM, 0.0293 s⁻¹ and 127000 M⁻¹ s⁻¹.
The corresponding values for B3 are 34.5 nM, 0.00432 s⁻¹ and 125000 M⁻¹ s⁻¹.
The corresponding values for B4 are 37.6 nM, 0.00494 s⁻¹ and 131000 M⁻¹ s⁻¹.
Regarding B5, the dissociation constant Kd came to 183 nM, the koff turned out to be 0.0225 s⁻¹ and the association rate constant (kon) amounted to 123000 M⁻¹ s⁻¹.
For the molecule B6, the dissociation constant Kd came to 59.6 nM, the dissociation rate constant (koff) came to 0.00818 s⁻¹ and the on-rate (kon) was found to be 137000 M⁻¹ s⁻¹.
The molecule B7 yielded a dissociation constant (Kd) of 31.5 nM, a koff of 0.00407 s⁻¹ and an on-rate (kon) of 129000 M⁻¹ s⁻¹.
B8 returned a dissociation constant (Kd) of 57.5 nM, a koff of 0.00776 s⁻¹ and a kon of 135000 M⁻¹ s⁻¹.
In turn, B9 showed a Kd of 33.1 nM, a koff of 0.00423 s⁻¹ and an on-rate constant (kon) of 128000 M⁻¹ s⁻¹.
The corresponding values for B10 are 20.1 nM, 0.00293 s⁻¹ and 146000 M⁻¹ s⁻¹.
Regarding B11, the Kd amounted to 35.9 nM, the dissociation rate constant (koff) was 0.00458 s⁻¹ and the association rate constant (kon) was 128000 M⁻¹ s⁻¹.
The corresponding values for B12 are 96 nM, 0.0283 s⁻¹ and 295000 M⁻¹ s⁻¹.
On to B13, for which the affinity, expressed as Kd, was 59.9 nM; the off-rate (koff) amounted to 0.00774 s⁻¹; the kon amounted to 129000 M⁻¹ s⁻¹.
The corresponding values for B14 are 74 nM, 0.00808 s⁻¹ and 109000 M⁻¹ s⁻¹.
Molecule B15 came in with a Kd of 74.5 nM, a koff of 0.0091 s⁻¹ and a kon of 122000 M⁻¹ s⁻¹.
The corresponding values for B16 are 41.5 nM, 0.00574 s⁻¹ and 138000 M⁻¹ s⁻¹.
The corresponding values for B17 are 59.1 nM, 0.00783 s⁻¹ and 132000 M⁻¹ s⁻¹.
The corresponding values for B18 are 74.6 nM, 0.0104 s⁻¹ and 140000 M⁻¹ s⁻¹.
The molecule B19 returned a Kd of 61 nM, a dissociation rate constant (koff) of 0.00827 s⁻¹ and an on-rate constant (kon) of 136000 M⁻¹ s⁻¹.
The corresponding values for B20 are 41.9 nM, 0.00529 s⁻¹ and 126000 M⁻¹ s⁻¹.
With B21, the Kd came to 48 nM, the koff was determined as 0.00674 s⁻¹ and the kon is 140000 M⁻¹ s⁻¹.
The corresponding values for B22 are 117 nM, 0.0159 s⁻¹ and 136000 M⁻¹ s⁻¹.
B23: the dissociation constant Kd was determined as 33.9 nM, the off-rate constant (koff) is 0.00457 s⁻¹ and the kon was determined as 135000 M⁻¹ s⁻¹.
On to B24, for which the affinity, expressed as Kd, was 42.4 nM; the koff amounted to 0.00619 s⁻¹; the kon was 146000 M⁻¹ s⁻¹.
The corresponding values for B25 are 92.8 nM, 0.0136 s⁻¹ and 147000 M⁻¹ s⁻¹.
The corresponding values for B26 are 112 nM, 0.0129 s⁻¹ and 115000 M⁻¹ s⁻¹.
The corresponding values for B27 are 500 nM, 0.0265 s⁻¹ and 53000 M⁻¹ s⁻¹.
In turn, B28 showed a dissociation constant Kd of 54.9 nM, an off-rate constant (koff) of 0.00567 s⁻¹ and a kon of 103000 M⁻¹ s⁻¹.
B29 yielded a dissociation constant (Kd) of 24.2 nM, a koff of 0.00287 s⁻¹ and an on-rate constant (kon) of 119000 M⁻¹ s⁻¹.
The corresponding values for B30 are 665 nM, 0.148 s⁻¹ and 223000 M⁻¹ s⁻¹.
In the case of B31, the affinity, expressed as Kd, was 43.9 nM; the koff was determined as 0.00544 s⁻¹; the on-rate (kon) is 124000 M⁻¹ s⁻¹.
The corresponding values for B32 are 30.9 nM, 0.00464 s⁻¹ and 150000 M⁻¹ s⁻¹.
Molecule B33 registered a Kd of 115 nM, a koff of 0.0178 s⁻¹ and a kon of 154000 M⁻¹ s⁻¹.
The corresponding values for B34 are 49.2 nM, 0.00692 s⁻¹ and 141000 M⁻¹ s⁻¹.

These data come from patent US20240294593A1 (Genentech, published 2024).
